Test results reported in US20130231277A1 (NEW YORK UNIVERSITY, published 2013).

Columns and labels:
[1] = biological target: T1, 1:1 binary complex of FGFR1c ligand-binding domain and βKlotho ectodomain (human; murine, UniProt P11362 142-365; Q99N32 53-995); assay: SPR competition; FGF21 immobilized, complex mixed with the mutant at a molar ratio of 1:2 or 1:6 (FIG. 14B)
T1 construct: also called FGFR1c-βKlotho complex; FGFR1c-βKlotho; not shown: C-terminal FLAG tag
T1 sequence 1: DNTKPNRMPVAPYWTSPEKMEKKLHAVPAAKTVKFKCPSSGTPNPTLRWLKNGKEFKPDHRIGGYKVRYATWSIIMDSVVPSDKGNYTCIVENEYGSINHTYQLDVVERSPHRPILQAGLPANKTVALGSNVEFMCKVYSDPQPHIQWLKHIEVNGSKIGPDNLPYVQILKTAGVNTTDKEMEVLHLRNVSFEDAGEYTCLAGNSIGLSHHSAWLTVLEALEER
T1 sequence 2: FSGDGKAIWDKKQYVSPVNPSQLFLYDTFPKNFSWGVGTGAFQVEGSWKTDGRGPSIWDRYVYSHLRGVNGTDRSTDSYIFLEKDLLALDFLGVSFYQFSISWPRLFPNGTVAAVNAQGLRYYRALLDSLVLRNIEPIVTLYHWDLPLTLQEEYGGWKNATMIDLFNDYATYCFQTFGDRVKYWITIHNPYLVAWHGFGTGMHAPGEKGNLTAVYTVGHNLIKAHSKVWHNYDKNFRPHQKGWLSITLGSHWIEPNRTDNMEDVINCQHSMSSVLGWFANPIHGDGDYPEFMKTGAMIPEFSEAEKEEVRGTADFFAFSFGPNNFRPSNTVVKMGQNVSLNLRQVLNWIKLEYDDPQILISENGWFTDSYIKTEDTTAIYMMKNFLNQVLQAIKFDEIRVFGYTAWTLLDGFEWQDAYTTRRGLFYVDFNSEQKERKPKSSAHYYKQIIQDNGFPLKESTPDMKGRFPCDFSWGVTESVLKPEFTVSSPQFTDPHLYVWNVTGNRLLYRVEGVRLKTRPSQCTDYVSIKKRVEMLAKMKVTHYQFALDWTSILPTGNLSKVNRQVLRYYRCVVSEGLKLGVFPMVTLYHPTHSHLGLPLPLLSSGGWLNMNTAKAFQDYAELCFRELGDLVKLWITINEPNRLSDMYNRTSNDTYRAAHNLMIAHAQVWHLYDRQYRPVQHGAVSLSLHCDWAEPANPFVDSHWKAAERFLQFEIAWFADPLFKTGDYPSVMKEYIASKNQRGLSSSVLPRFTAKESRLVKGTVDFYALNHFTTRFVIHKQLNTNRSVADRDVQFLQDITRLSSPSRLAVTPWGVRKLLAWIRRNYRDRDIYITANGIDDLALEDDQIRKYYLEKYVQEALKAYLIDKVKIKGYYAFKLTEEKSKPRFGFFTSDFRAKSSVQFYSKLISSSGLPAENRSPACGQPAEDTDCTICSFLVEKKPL
Procedure: Increasing concentrations of FGF21 were mixed with a fixed concentration of FGFR1c-βKlotho complex, and the mixtures were passed over a FGF21 chip. […] In the experiments shown in FIGS. 14B-14C, FGFR1c-βKlotho complex was mixed with either mutant FGF21 or wild-type FGF21 at a molar ratio of 1:2 or 1:6, and the mixtures were injected over a FGF21 chip. The data shown in FIGS. 14A-14C are representative of two to three independent experiments.
SPR experiments were performed on a Biacore 2000 instrument (Biacore AB), and all the protein-protein and protein-peptide interactions were studied at 25° C. in HBS-EP buffer (10 mM HEPES-NaOH, pH 7.4, 150 mM NaCl, 3 mM EDTA, 0.005% (v/v) polysorbate 20). Proteins were immobilized by amine coupling on flow channels of research grade CM5 chips (Biacore AB). Proteins were injected over a CM5 chip at a flow rate of 50 μl min⁻¹, and at the end of each protein injection (180 s), HBS-EP buffer (50 μl min⁻¹) was flowed over the chip to monitor dissociation for 180 s. In experiments where βKlotho binding to FGFR was analyzed, the chip surface was then regenerated by injecting 50 μl of 2.0 M NaCl in 10 mM sodium/potassium phosphate, pH 6.5. In experiments where α/βKlotho binding to FGF19/21/23 or binding of the FGFR1c-βKlotho complex to FGF21 was studied, 2.0 M NaCl in 10 mM sodium acetate, pH 4.5 was used for chip regeneration.

[2] = biological target: T2, ectodomain of murine βKlotho (F53 to L995 of SEQ ID NO: 218) with a C-terminal FLAG tag (murine, UniProt Q99N32 53-995); assay: SPR competition; FGF19 or FGF21 immobilized, fixed βKlotho ectodomain mixed with increasing peptide (FIGS. 5B, 5F)
T2 construct: Expressed in HEK293 cells and purified from culture media; also called βKlotho ectodomain; not shown: C-terminal FLAG tag
T2 sequence: T1 sequence 2
Text: Residues that are identical between FGF19 and FGF21 are shaded gray. Note that 40% of these residues map to the most C-terminal sequence. […] FGF19 was immobilized on a biosensor chip, and mixtures of a fixed concentration of βKlotho ectodomain with increasing concentrations of FGF19^C-tail were passed over the chip. […] Mixtures of a fixed concentration of βKlotho ectodomain with increasing concentrations of FGF21^C-tail were passed over a biosensor chip onto which FGF19 had been immobilized. […] FGF21 was immobilized on a biosensor chip, and mixtures of a fixed concentration of βKlotho ectodomain with increasing concentrations of FGF21^C-tail were passed over the chip. […] Mixtures of a fixed concentration of βKlotho ectodomain with increasing concentrations of FGF19^C-tail were passed over a biosensor chip onto which FGF21 had been immobilized. […] The data shown in FIGS. 5B-G are representative of two to three independent experiments.

[3] = biological target: T2, ectodomain of murine βKlotho (F53 to …); assay: size-exclusion chromatography of the binary complex (FIG. 1A)
Procedure: Size-exclusion chromatography experiments were performed on a HiLoad™ 16/60 Superdex™ 200 prep grade column (GE Healthcare) mounted on an ÄKTApurifier (GE Healthcare). […] Sample injection volume was 0.9 to 2.0 ml, and the flow rate was 1.0 ml min⁻¹. Protein retention times were determined by absorbance at 280 nm. The column was calibrated with ferritin (440 kDa), immunoglobulin G (150 kDa), albumin (69.3 kDa), ovalbumin (44.3 kDa), carbonic anhydrase (28.8 kDa), and ribonuclease A (13.7 kDa). The void volume was determined using blue dextran 2,000, and the column volume was measured with acetone. To examine ternary complex formation between FGF21, FGFR1c, and βKlotho, 2.72 μmol of the 1:1 binary complex of FGFR1c ligand-binding domain and βKlotho ectodomain were mixed with 9.25 μmol of FGF21, and the mixture was applied to the size-exclusion column. The retention time of the FGFR1c-βKlotho complex alone served as a reference point. To examine ternary complex formation between FGF19, FGFR4, and βKlotho, 2.46 μmol of the 1:1 binary complex of FGFR4 ligand-binding domain and βKlotho ectodomain were mixed with 8.51 μmol of FGF19, and the mixture was applied to the size-exclusion column. The retention time of the FGFR4-βKlotho complex alone served as a reference point. […]

[4] = biological target: FGFR1c endogenously expressed by HEK293 cells transiently transfected with murine βKlotho (UniProt P11362 22-822); assay: cell-based or functional assay
Chain of FGFR1c endogenously expressed by HEK293 cells transiently transfected with murine βKlotho (P11362 22-822): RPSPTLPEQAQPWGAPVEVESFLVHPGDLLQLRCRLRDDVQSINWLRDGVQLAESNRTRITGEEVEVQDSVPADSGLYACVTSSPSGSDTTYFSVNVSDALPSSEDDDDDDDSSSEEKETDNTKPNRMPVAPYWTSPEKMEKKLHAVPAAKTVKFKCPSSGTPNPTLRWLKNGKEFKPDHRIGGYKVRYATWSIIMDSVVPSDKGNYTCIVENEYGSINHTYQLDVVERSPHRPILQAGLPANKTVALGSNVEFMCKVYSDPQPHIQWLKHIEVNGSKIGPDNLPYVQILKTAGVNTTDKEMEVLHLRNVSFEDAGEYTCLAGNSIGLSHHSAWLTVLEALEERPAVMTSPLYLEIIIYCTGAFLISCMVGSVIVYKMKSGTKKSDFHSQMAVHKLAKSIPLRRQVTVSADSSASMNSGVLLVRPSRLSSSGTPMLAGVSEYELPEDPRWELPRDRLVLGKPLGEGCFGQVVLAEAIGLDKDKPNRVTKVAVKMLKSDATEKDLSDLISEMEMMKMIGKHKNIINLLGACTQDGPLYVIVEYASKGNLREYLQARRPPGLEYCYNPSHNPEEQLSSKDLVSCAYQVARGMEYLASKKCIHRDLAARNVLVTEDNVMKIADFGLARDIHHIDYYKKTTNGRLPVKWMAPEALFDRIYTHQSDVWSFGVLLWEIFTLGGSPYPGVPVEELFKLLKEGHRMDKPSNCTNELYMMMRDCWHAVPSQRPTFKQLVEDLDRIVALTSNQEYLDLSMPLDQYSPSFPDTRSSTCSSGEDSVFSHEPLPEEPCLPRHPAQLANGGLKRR

B1: Y207F single mutant of human FGF21 (SEQ ID NO: 232) (ligand)
chain: HPIPDSSPLLQFGGQVRQRYLYTDDAQQTEAHLEIREDGTVGGAADQSPESLLQLKALKPGVIQILGVKTSRFLCQRPDGALYGSLHFDPEACSFRELLLEDGYNVYQSEAHGLPLHLPGNKSPHRDPAPRGPARFLPLPGLPPALPEPPGILAPQPPDVGSSDPLSMVGPSQGRSPSFAS
notes: It was purified by the same protocol as the wild-type protein, which was H29 to S209; also called Y207F mutant of FGF21; single mutant FGF21
B1: binds [1].

B2: C-terminal tail peptide of human FGF19 (M171 to K216 of SEQ ID NO: 1), fused to a 50 residue-long N-terminal tag including a hexahistidine tag (peptide)
peptide: MVPEEPEDLRGHLESDMFSSPLETDSMDPFGLVTGLEAVRSPSFEK
notes: Expressed in E. coli and purified from the soluble lysate fraction; also called FGF19^C-tail; FGF19 C-terminal tail peptide; not shown: 50 residue-long N-terminal tag including a hexahistidine tag
B2: binds [2].

B3: ligand-binding domain of human FGFR1c (D142 to R365 of SEQ ID NO: 221) (receptor)
chain: T1 sequence 1
B3: binds [3].

B4: FGF21^29-167/FGF19^169-216 chimera (H29 to L167 of human FGF21 and L169 to K216 of human FGF19; SEQ ID NO: 207) (ligand)
chain: HPIPDSSPLLQFGGQVRQRYLYTDDAQQTEAHLEIREDGTVGGAADQSPESLLQLKALKPGVIQILGVKTSRFLCQRPDGALYGSLHFDPEACSFRELLLEDGYNVYQSEAHGLPLHLPGNKSPHRDPAPRGPARFLPLLPMVPEEPEDLRGHLESDMFSSPLETDSMDPFGLVTGLEAVRSPSFEK
B4 was tested, and the “Induction of Egr1 protein expression (immunoblot, HEK293 cells co-expressing FGFR1c and βKlotho)” value [4] was 10 fold lower concentration than native FGF21.
